Source: article PMC8092243, “Cryo-EM Structures of CusA Reveal a Mechanism of Metal-Ion Export” (mBio, 2021)

Molecular target: the molecule itself
Assay: cryo-EM structure; CusA in lipid nanodiscs (MSP 1E3D1, E. coli total extract lipid), 0.7 mg/ml (2 uM), incubated with 20 uM Cu(I), 20 mM HEPES-NaOH pH 7.0; four trimer classes (EEE, EEB, EBB, BBB) from one sample

B1: CusA heavy-metal efflux pump (natural protein, E. coli)
chain: MIEWIIRRSVANRFLVLMGALFLSIWGTWTIINTPVDALPDLSDVQVIIKTSYPGQAPQIVENQVTYPLTTTMLSVPGAKTVRGFSQFGDSYVYVIFEDGTDPYWARSRVLEYLNQVQGKLPAGVSAELGPDATGVGWIYEYALVDRSGKHDLADLRSLQDWFLKYELKTIPDVAEVASVGGVVKEYQVVIDPQRLAQYGISLAEVKSALDASNQEAGGSSIELAEAEYMVRASGYLQTLDDFNHIVLKASENGVPVYLRDVAKVQIGPEMRRGIAELNGEGEVAGGVVILRSGKNAREVIAAVKDKLETLKSSLPEGVEIVTTYDRSQLIDRAIDNLSGKLLEEFIVVAVVCALFLWHVRSALVAIISLPLGLCIAFIVMHFQGLNANIMSLGGIAIAVGAMVDAAIVMIENAHKRLEEWQHQHPDATLDNKTRWQVITDASVEVGPALFISLLIITLSFIPIFTLEGQEGRLFGPLAFTKTYAMAGAALLAIVVIPILMGYWIRGKIPPESSNPLNRFLIRVYHPLLLKVLHWPKTTLLVAALSVLTVLWPLNKVGGEFLPQINEGDLLYMPSTLPGISAAEAASMLQKTDKLIMSVPEVARVFGKTGKAETATDSAPLEMVETTIQLKPQEQWRPGMTMDKIIEELDNTVRLPGLANLWVPPIRNRIDMLSTGIKSPIGIKVSGTVLADIDAMAEQIEEVARTVPGVASALAERLEGGRYINVEINREKAARYGMTVADVQLFVTSAVGGAMVGETVEGIARYPINLRYPQSWRDSPQALRQLPILTPMKQQITLADVADIKVSTGPSMLKTENARPTSWIYIDARDRDMVSVVHDLQKAIAEKVQLKPGTSVAFSGQFELLERANHKLKLMVPMTLMIIFVLLYLAFRRVGEALLIISSVPFALVGGIWLLWWMGFHLSVATGTGFIALAGVAAEFGVVMLMYLRHAIEAVPSLNNPQTFSEQKLDEALYHGAVLRVRPKAMTVAVIIAGLLPILWGTGAGSEVMSRIAAPMIGGMITAPLLSLFIIPAAYKLMWLHRHRVRK
notes: CusA, heavy-metal efflux (HME) RND pump of Escherichia coli; the cusA gene cloned into pET15b; the cryo-EM models incorporate residues Ile-5 to Trp-1039; Homotrimer embedded in lipid nanodiscs, in the presence of Cu(I); The membrane scaffold protein MSP 1E3D1 of the nanodisc is not a studied partner; also called CusA membrane protein; CusA trimer
stoichiometry N: 3
